B1: target 1 insC 3' of 13,insA 3' of 4 (mixed)
RNA 1: CACCCGUGCAAAAAUGCAGGGGUCUAAAACUGAGCGGAUAACCUCUCUAUGG
RNA 2: GGGAAUGGAUCCACAUCUACGAAUUCGUACCAUAGAGAGCGUUAUCCGCAUCACCGAGAUCGGAAGAGCACACGU
B2: target 1 insA 3' of 4,insG 3' of 2 (mixed)
RNA 1: CACCCGUGCAAAAAUGCAGGGGUCUAAAACUGAGCGGAUAACCUCUCUAUGG
RNA 2: GGGAAUGGAUCCACAUCUACGAAUUCGUACCAUAGAGAGGUUAUCCGCAUCGACCGAGAUCGGAAGAGCACACGU
B3: target 1 C6A,U8A (mixed)
RNA 1: CACCCGUGCAAAAAUGCAGGGGUCUAAAACUGAGCGGAUAACCUCUCUAUGG
RNA 2: GGGAAUGGAUCCACAUCUACGAAUUCGUACCAUAGAGAGGUUAACAGCUCACCGAGAUCGGAAGAGCACACGU
B4: target 1 insA 3' of 15,insU 3' of 6 (mixed)
RNA 1: CACCCGUGCAAAAAUGCAGGGGUCUAAAACUGAGCGGAUAACCUCUCUAUGG
RNA 2: GGGAAUGGAUCCACAUCUACGAAUUCGUACCAUAGAGAAGGUUAUCCUGCUCACCGAGAUCGGAAGAGCACACGU
B5: target 1 C7G,G12A (mixed)
RNA 1: CACCCGUGCAAAAAUGCAGGGGUCUAAAACUGAGCGGAUAACCUCUCUAUGG
RNA 2: GGGAAUGGAUCCACAUCUACGAAUUCGUACCAUAGAGAGAUUAUGCGCUCACCGAGAUCGGAAGAGCACACGU
B6: target 1 insC 3' of 18,insU 3' of 18 (mixed)
RNA 1: CACCCGUGCAAAAAUGCAGGGGUCUAAAACUGAGCGGAUAACCUCUCUAUGG
RNA 2: GGGAAUGGAUCCACAUCUACGAAUUCGUACCAUACUGAGAGGUUAUCCGCUCACCGAGAUCGGAAGAGCACACGU
B7: target 1 U8C,A14C (mixed)
RNA 1: CACCCGUGCAAAAAUGCAGGGGUCUAAAACUGAGCGGAUAACCUCUCUAUGG
RNA 2: GGGAAUGGAUCCACAUCUACGAAUUCGUACCAUAGAGCGGUUACCCGCUCACCGAGAUCGGAAGAGCACACGU
B8: target 1 insC 3' of 14,insA 3' of 12 (mixed)
RNA 1: CACCCGUGCAAAAAUGCAGGGGUCUAAAACUGAGCGGAUAACCUCUCUAUGG
RNA 2: GGGAAUGGAUCCACAUCUACGAAUUCGUACCAUAGAGACGGAUUAUCCGCUCACCGAGAUCGGAAGAGCACACGU
B9: target 1 insA 3' of 15,insC 3' of 10 (mixed)
RNA 1: CACCCGUGCAAAAAUGCAGGGGUCUAAAACUGAGCGGAUAACCUCUCUAUGG
RNA 2: GGGAAUGGAUCCACAUCUACGAAUUCGUACCAUAGAGAAGGUUCAUCCGCUCACCGAGAUCGGAAGAGCACACGU
B10: target 1 C4G,G15U (mixed)
RNA 1: CACCCGUGCAAAAAUGCAGGGGUCUAAAACUGAGCGGAUAACCUCUCUAUGG
RNA 2: GGGAAUGGAUCCACAUCUACGAAUUCGUACCAUAGAUAGGUUAUCCGGUCACCGAGAUCGGAAGAGCACACGU
B11: target 1 insA 3' of 12,insU 3' of 7 (mixed)
RNA 1: CACCCGUGCAAAAAUGCAGGGGUCUAAAACUGAGCGGAUAACCUCUCUAUGG
RNA 2: GGGAAUGGAUCCACAUCUACGAAUUCGUACCAUAGAGAGGAUUAUCUCGCUCACCGAGAUCGGAAGAGCACACGU
B12: target 1 A14G,U19A (mixed)
RNA 1: CACCCGUGCAAAAAUGCAGGGGUCUAAAACUGAGCGGAUAACCUCUCUAUGG
RNA 2: GGGAAUGGAUCCACAUCUACGAAUUCGUACCAAAGAGGGGUUAUCCGCUCACCGAGAUCGGAAGAGCACACGU
B13: target 1 insC 3' of 19,insG 3' of 3 (mixed)
RNA 1: CACCCGUGCAAAAAUGCAGGGGUCUAAAACUGAGCGGAUAACCUCUCUAUGG
RNA 2: GGGAAUGGAUCCACAUCUACGAAUUCGUACCAUCAGAGAGGUUAUCCGCUGCACCGAGAUCGGAAGAGCACACGU
B14: target 1 insA 3' of 21,insG 3' of 4 (mixed)
RNA 1: CACCCGUGCAAAAAUGCAGGGGUCUAAAACUGAGCGGAUAACCUCUCUAUGG
RNA 2: GGGAAUGGAUCCACAUCUACGAAUUCGUACCAAUAGAGAGGUUAUCCGCGUCACCGAGAUCGGAAGAGCACACGU
B15: target 1 insA 3' of 13,insU 3' of 2 (mixed)
RNA 1: CACCCGUGCAAAAAUGCAGGGGUCUAAAACUGAGCGGAUAACCUCUCUAUGG
RNA 2: GGGAAUGGAUCCACAUCUACGAAUUCGUACCAUAGAGAGAGUUAUCCGCUCUACCGAGAUCGGAAGAGCACACGU
B16: target 1 insC 3' of 13,insG 3' of 11 (mixed)
RNA 1: CACCCGUGCAAAAAUGCAGGGGUCUAAAACUGAGCGGAUAACCUCUCUAUGG
RNA 2: GGGAAUGGAUCCACAUCUACGAAUUCGUACCAUAGAGAGCGUGUAUCCGCUCACCGAGAUCGGAAGAGCACACGU
B17: target 1 U19G,C21U (mixed)
RNA 1: CACCCGUGCAAAAAUGCAGGGGUCUAAAACUGAGCGGAUAACCUCUCUAUGG
RNA 2: GGGAAUGGAUCCACAUCUACGAAUUCGUACUAGAGAGAGGUUAUCCGCUCACCGAGAUCGGAAGAGCACACGU
B18: target 1 A1G,C22U (mixed)
RNA 1: CACCCGUGCAAAAAUGCAGGGGUCUAAAACUGAGCGGAUAACCUCUCUAUGG
RNA 2: GGGAAUGGAUCCACAUCUACGAAUUCGUAUCAUAGAGAGGUUAUCCGCUCGCCGAGAUCGGAAGAGCACACGU
B19: target 1 G5A,G17C (mixed)
RNA 1: CACCCGUGCAAAAAUGCAGGGGUCUAAAACUGAGCGGAUAACCUCUCUAUGG
RNA 2: GGGAAUGGAUCCACAUCUACGAAUUCGUACCAUACAGAGGUUAUCCACUCACCGAGAUCGGAAGAGCACACGU
B20: target 1 insA 3' of 17,insA 3' of 15 (mixed)
RNA 1: CACCCGUGCAAAAAUGCAGGGGUCUAAAACUGAGCGGAUAACCUCUCUAUGG
RNA 2: GGGAAUGGAUCCACAUCUACGAAUUCGUACCAUAGAAGAAGGUUAUCCGCUCACCGAGAUCGGAAGAGCACACGU
B21: target 1 U3C,G12U (mixed)
RNA 1: CACCCGUGCAAAAAUGCAGGGGUCUAAAACUGAGCGGAUAACCUCUCUAUGG
RNA 2: GGGAAUGGAUCCACAUCUACGAAUUCGUACCAUAGAGAGUUUAUCCGCCCACCGAGAUCGGAAGAGCACACGU
B22: target 1 U8G,U10C (mixed)
RNA 1: CACCCGUGCAAAAAUGCAGGGGUCUAAAACUGAGCGGAUAACCUCUCUAUGG
RNA 2: GGGAAUGGAUCCACAUCUACGAAUUCGUACCAUAGAGAGGUCAGCCGCUCACCGAGAUCGGAAGAGCACACGU
B23: target 1 insA 3' of 19,insA 3' of 3 (mixed)
RNA 1: CACCCGUGCAAAAAUGCAGGGGUCUAAAACUGAGCGGAUAACCUCUCUAUGG
RNA 2: GGGAAUGGAUCCACAUCUACGAAUUCGUACCAUAAGAGAGGUUAUCCGCUACACCGAGAUCGGAAGAGCACACGU
B24: target 1 insC 3' of 18,insA 3' of 15 (mixed)
RNA 1: CACCCGUGCAAAAAUGCAGGGGUCUAAAACUGAGCGGAUAACCUCUCUAUGG
RNA 2: GGGAAUGGAUCCACAUCUACGAAUUCGUACCAUACGAGAAGGUUAUCCGCUCACCGAGAUCGGAAGAGCACACGU
B25: target 1 insG 3' of 16,insU 3' of 2 (mixed)
RNA 1: CACCCGUGCAAAAAUGCAGGGGUCUAAAACUGAGCGGAUAACCUCUCUAUGG
RNA 2: GGGAAUGGAUCCACAUCUACGAAUUCGUACCAUAGAGGAGGUUAUCCGCUCUACCGAGAUCGGAAGAGCACACGU
B26: target 1 insU 3' of 22,insA 3' of 10 (mixed)
RNA 1: CACCCGUGCAAAAAUGCAGGGGUCUAAAACUGAGCGGAUAACCUCUCUAUGG
RNA 2: GGGAAUGGAUCCACAUCUACGAAUUCGUACUCAUAGAGAGGUUAAUCCGCUCACCGAGAUCGGAAGAGCACACGU
B27: target 1 C4U,G5C (mixed)
RNA 1: CACCCGUGCAAAAAUGCAGGGGUCUAAAACUGAGCGGAUAACCUCUCUAUGG
RNA 2: GGGAAUGGAUCCACAUCUACGAAUUCGUACCAUAGAGAGGUUAUCCCUUCACCGAGAUCGGAAGAGCACACGU

The data set addresses T1, EsCas13d, nuclease-dead (Eubacterium siraeum, UniProt B0MS50, R295A;H300A;R849A;H854A).
T1 sequence: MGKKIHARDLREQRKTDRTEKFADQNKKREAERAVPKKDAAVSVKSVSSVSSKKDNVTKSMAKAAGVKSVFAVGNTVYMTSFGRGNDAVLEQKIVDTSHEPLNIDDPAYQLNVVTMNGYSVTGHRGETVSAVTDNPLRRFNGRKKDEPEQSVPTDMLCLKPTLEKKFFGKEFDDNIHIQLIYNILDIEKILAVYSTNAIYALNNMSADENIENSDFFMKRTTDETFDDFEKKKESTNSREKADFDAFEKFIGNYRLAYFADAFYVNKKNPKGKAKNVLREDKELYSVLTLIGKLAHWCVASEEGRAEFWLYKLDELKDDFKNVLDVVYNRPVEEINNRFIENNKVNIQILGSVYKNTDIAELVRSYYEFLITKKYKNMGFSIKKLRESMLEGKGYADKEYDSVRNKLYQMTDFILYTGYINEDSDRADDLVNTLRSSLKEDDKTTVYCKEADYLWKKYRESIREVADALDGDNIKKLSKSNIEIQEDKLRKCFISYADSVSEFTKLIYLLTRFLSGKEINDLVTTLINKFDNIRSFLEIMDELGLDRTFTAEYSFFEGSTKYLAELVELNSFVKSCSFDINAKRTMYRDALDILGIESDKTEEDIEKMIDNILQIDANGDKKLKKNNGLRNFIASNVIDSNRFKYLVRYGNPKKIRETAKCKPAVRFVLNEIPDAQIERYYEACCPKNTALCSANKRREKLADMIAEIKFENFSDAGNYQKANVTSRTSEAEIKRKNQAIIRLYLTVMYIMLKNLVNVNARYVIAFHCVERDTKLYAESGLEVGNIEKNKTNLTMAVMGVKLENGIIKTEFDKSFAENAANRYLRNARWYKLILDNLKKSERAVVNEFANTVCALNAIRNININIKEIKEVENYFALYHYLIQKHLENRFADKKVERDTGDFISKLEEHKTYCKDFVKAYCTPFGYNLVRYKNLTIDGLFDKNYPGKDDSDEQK
The data set is described as follows: crRNA (strand 1, pre-loaded); Mg2+; 40 mM Tris-HCl pH 7.5, 150 mM NaCl, 6 mM MgCl2, 1 mM DTT, 0.1% Tween-20, 0.2 mg/ml BSA; 25 C; 10 min per concentration, then washed. The following applies: tags: His6-TwinStrep-SUMO cleaved; N-terminal SNAP kept (SNAP-Surface 488); label: 3' end held by stalled T7 RNA polymerase.
B1 returned a Kd of 4.86 ± 0.17 nM. For B2 the value was 7.7 ± 0.6 nM. For B3, the affinity, expressed as Kd, was 14.4 ± 0.4 nM. The figure for B4 is 11.3 ± 0.5 nM; for B5 it is 15.4 ± 1.3 nM. The figure for B6 is 57 ± 6 nM; for B7 it is 81 ± 14 nM. The figure for B8 is 70 ± 14 nM.

As to B9, the Kd was roughly 80 nM. The figure for B10 is 22 ± 8 nM; for B11 it is 42 ± 5 nM; for B12 it is 91 ± 17 nM.

In turn, B13 came in with a Kd of 26 ± 1.4 nM. With B14, the Kd worked out at 14.3 ± 1.1 nM. This Kd is about 1.8-fold lower than that of the molecule before. For B15 the value was 4.3 ± 0.4 nM; for B16, 28.5 ± 3.4 nM; for B17, 11.1 ± 1.3 nM.

B18 gave a Kd of 13.9 ± 2.5 nM. The figure for B19 is 80 ± 21 nM. B20 had a Kd of 8 ± 0.8 nM. Turning to B21, the affinity, expressed as Kd, was 19.4 ± 1.4 nM. As for B22, the Kd came to 19.8 ± 1.2 nM.

Consider B23, for which binding was characterised by a dissociation constant (Kd) of 16.7 ± 1 nM. The Kd values of the last two molecules are within 1.5-fold of each other.

B24 returned a Kd of 25.1 ± 1.2 nM. For B25 the value was 15.1 ± 1.3 nM; for B26, 43 ± 5 nM; for B27, 39 ± 4 nM.

In general, Kd refers to the constant that tells how readily two partners part at equilibrium. Lower therefore signals a tighter complex.

The record behind these values is article PMC10786891, “Massively parallel profiling of RNA-targeting CRISPR-Cas13d”.
